The source of these data is paper PMC11813153, “Extended receptor repertoire of an adenovirus associated with human obesity” (PLOS Pathogens, 2025).

Data set [1] has as its target HAdV-D36 fiber knob domain (FK) (Human adenovirus type 36 (HAdV-D36), strain 275). The experiment in a line: crystal structure; fiber knobs crystallised alone or co-crystallised with 10 mM carbohydrate; HAdV-D36 FK: hanging drop, PEG 3,350, NH4Ac, 0.1 M Bis-Tris pH 5.5, 4 C.
Data set [2] concerns the molecule itself. Described as above.

For orientation: stoichiometry N means the number of molecules, sites or subunits per partner or assembly. In the case of “HAdV-D36 fiber knob domain (FK) (domain or fragment)”, the stoichiometry N in data set [1] was 3.

B1: HAdV-D37 fiber knob (FK) (domain or fragment)
chain: GYLVAWNPKYDTRTLWTTPDTSPNCTIAQDKDSKLTLVLTKCGSQILANVSLIVVAGKYHIINNKTNPKIKSFTIKLLFNKNGVLLDNSNLGKAYWNFRSGNSNVSTAYEKAIGFMPNLVAYPKPSNSKKYARDIVYGTIYLGGKPDQPAVIKTTFNQETGCEYSITFNFSWSKTYENVEFETTSFTFSYIAQE
notes: fiber protein of human adenovirus type 37 (HAdV-D37), knob domain; checked against GenBank ABK59080.1 (HAdV-D37 fiber); also called HAdV-D37 FK; HAdV-D37 wt FK; source: construct, expression and purification as described previously [100]
In the case of B1, the “stoichiometry N” value in data set [2] worked out at 3.
